Among the data in article PMC10454580, “Exploring the Binding Affinity of the ARR2 GARP DNA Binding Domain via Comparative Methods” are Kd values, retold here.

What all share (conditions): protein: recombinant; tags: N-terminal 8xHis-MBP; label: 5' biotin on antisense strand (DPI-ELISA); 5' Alexa647 on antisense strand (FCS); unlabeled (MST); blunt
Series [1] has as its target T1, His8-MBP-GARP2 (ARR2 GARP DNA-binding domain) (UniProt Q9ZWJ9 211-275).
T1 sequence: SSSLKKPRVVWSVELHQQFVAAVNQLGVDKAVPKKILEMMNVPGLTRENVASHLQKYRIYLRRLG
In words: MST; thermophoresis 47/3; bounds 202.0-1474.6; MST: PBS-T, 250 nM protein, 25 nM RED-tris-NTA, 40% MST power, 22-26 C; FCS: PBS, 25 C; qDPI-ELISA: TBS/TBS-T (20 mM Tris, 0.18 M NaCl, pH 7.5, 0.1% Tween-20).

Series [2] concerns the target T1, His8-MBP-GARP2 (ARR2 GARP DNA-binding …). In words: MST; thermophoresis 42/3; bounds 259.5-988.2; MST: PBS-T, 250 nM protein, 25 nM RED-tris-NTA, 40% MST power, 22-26 C; FCS: PBS, 25 C; qDPI-ELISA: TBS/TBS-T (20 mM Tris, 0.18 M NaCl, pH 7.5, 0.1% Tween-20). (In general: ELISA stands for enzyme-linked immunosorbent assay.)
The target is the same in series [3]. Kind of series: MST; inverse T-jump 6/5; bounds 471.3-1412.8; MST: PBS-T, 250 nM protein, 25 nM RED-tris-NTA, 40% MST power, 22-26 C; FCS: PBS, 25 C; qDPI-ELISA: TBS/TBS-T (20 mM Tris, 0.18 M NaCl, pH 7.5, 0.1% Tween-20).
Series [4] has the same target. Kind of series: MST; thermophoresis 48/3; bounds 240.8-1742.8; MST: PBS-T, 250 nM protein, 25 nM RED-tris-NTA, 40% MST power, 22-26 C; FCS: PBS, 25 C; qDPI-ELISA: TBS/TBS-T (20 mM Tris, 0.18 M NaCl, pH 7.5, 0.1% Tween-20).
The target is the same in series [5]. In words: MST; back diffusion 8/7; bounds 61.0-374.4; MST: PBS-T, 250 nM protein, 25 nM RED-tris-NTA, 40% MST power, 22-26 C; FCS: PBS, 25 C; qDPI-ELISA: TBS/TBS-T (20 mM Tris, 0.18 M NaCl, pH 7.5, 0.1% Tween-20).
For series [6] the target is unchanged. In words: MST; thermophoresis 41/3; bounds 250.9-787.3; MST: PBS-T, 250 nM protein, 25 nM RED-tris-NTA, 40% MST power, 22-26 C; FCS: PBS, 25 C; qDPI-ELISA: TBS/TBS-T (20 mM Tris, 0.18 M NaCl, pH 7.5, 0.1% Tween-20).
The target is the same in series [7]. In words: MST; thermophoresis 45/3; bounds 218.2-1077.2; MST: PBS-T, 250 nM protein, 25 nM RED-tris-NTA, 40% MST power, 22-26 C; FCS: PBS, 25 C; qDPI-ELISA: TBS/TBS-T (20 mM Tris, 0.18 M NaCl, pH 7.5, 0.1% Tween-20).
The target is the same in series [8]. In words: MST; thermophoresis 410/3; bounds 211.1-2267.5; MST: PBS-T, 250 nM protein, 25 nM RED-tris-NTA, 40% MST power, 22-26 C; FCS: PBS, 25 C; qDPI-ELISA: TBS/TBS-T (20 mM Tris, 0.18 M NaCl, pH 7.5, 0.1% Tween-20).
Series [9] shares this target. Kind of series: MST; T-jump region 2/1; ESP bounds 33.9-203.5; MST: PBS-T, 250 nM protein, 25 nM RED-tris-NTA, 40% MST power, 22-26 C; FCS: PBS, 25 C; qDPI-ELISA: TBS/TBS-T (20 mM Tris, 0.18 M NaCl, pH 7.5, 0.1% Tween-20).
The target is the same in series [10]. In words: MST; thermophoresis 43/3; bounds 260.4-960.9; MST: PBS-T, 250 nM protein, 25 nM RED-tris-NTA, 40% MST power, 22-26 C; FCS: PBS, 25 C; qDPI-ELISA: TBS/TBS-T (20 mM Tris, 0.18 M NaCl, pH 7.5, 0.1% Tween-20).
Series [11] has the same target. Kind of series: MST; thermophoresis 44/3; bounds 229.7-868.7; MST: PBS-T, 250 nM protein, 25 nM RED-tris-NTA, 40% MST power, 22-26 C; FCS: PBS, 25 C; qDPI-ELISA: TBS/TBS-T (20 mM Tris, 0.18 M NaCl, pH 7.5, 0.1% Tween-20).
Series [12] shares this target. In words: MST; thermophoresis 46/3; bounds 192.7-1173.8; MST: PBS-T, 250 nM protein, 25 nM RED-tris-NTA, 40% MST power, 22-26 C; FCS: PBS, 25 C; qDPI-ELISA: TBS/TBS-T (20 mM Tris, 0.18 M NaCl, pH 7.5, 0.1% Tween-20).
Series [13] shares this target. In words: MST; thermophoresis 49/3; bounds 200.6-1912.2; MST: PBS-T, 250 nM protein, 25 nM RED-tris-NTA, 40% MST power, 22-26 C; FCS: PBS, 25 C; qDPI-ELISA: TBS/TBS-T (20 mM Tris, 0.18 M NaCl, pH 7.5, 0.1% Tween-20).

B1: wtOligo (ARR5 promoter fragment) (dsDNA)
DNA 1: TTAACAATCTCAAAGATTTTGTAGATTGAAATACAAATCTTCTCT
DNA 2: AGAGAAGATTTGTATTTCAATCTACAAAATCTTTGAGATTGTTAA
With B1, the Kd (as a rule, a measure of binding affinity in units of concentration) in series [1] worked out at 578 ± 317 nM; in series [2], 526 ± 178 nM; in series [3], 826 ± 222 nM; in series [4] it was 679 ± 376 nM; in series [5] it was 166 ± 74.3 nM; in series [6] it was 456 ± 132 nM. Also, the Kd in series [7] was determined as 510 ± 212 nM; in series [8] it was 738 ± 505 nM; in [9], 93.3 ± 40.3 nM; in series [10], 520 ± 172 nM; in [11], 462 ± 163 nM; in series [12] it was 506 ± 246 nM. Moreover, the Kd in series [13] was 660 ± 419 nM.
